Source: patent US11180770B2, “HPPD variants and methods of use” (BASF Agricultural Solutions Seed US LLC, priority 2017, dated 2021)

Legend:
[1] = tested on: HPPD polypeptides; test: coupled HPPD activity assay: turnover and residual turnover in crude extracts; type: biochemical, Pseudomonas fluorescens; details: for Turnover: absence of Cmpd. 1, kinetic changes in absorbance (OD) at 320 nm, 30 min; for Turnover / Residual turnover: high substrate concentration; for Residual turnover: presence of 100 μM Cmpd. 1, changes in absorbance (OD) at 320 nm; for turnover / residual turnover in the presence of Cmpd. 1 compared with a reference HPPD polypeptide, in words: comparison with the reference or parent polypeptide; for Residual turnover [%]: 100 μM Cmpd. 1, signal change with inhibitor divided by signal change without inhibitor
[2] = tested on: T0 soybean plants; test: greenhouse spray test, leaf area damage score; type: in vivo; details: for leaf area damage score, 25th percentile / leaf area damage score, 75th percentile / leaf area damage score, 90th percentile / leaf area damage score, Median: transgenic soybean T0 events, five days after Cmpd. 1 at 300 g AI/ha; for leaf area damage score, 25th percentile: scale 0 (no damage) to 100 (complete bleaching)
Description: Tolerant green shoots were transferred to rooting media or grafted. Rooted plantlets were transferred to the greenhouse after an acclimation period. Plants containing the transgene were then sprayed with HPPD inhibitor herbicides, as for example with mesotrione at a rate of 300-600 g AI/ha, or with Cmpd. 1 (2-chloro-3-(methylsulfanyl)-N-(1-methyl-1H-tetrazol-5-yl)-4-(trifluoromethyl)-benzamide) at a rate of 150 g-300 g AI/ha supplemented with ammonium sulfate and methyl ester rapeseed oil. Five to ten days after the application, the symptoms due to the application of the herbicide were evaluated and compared to the symptoms observed on wild-type plants under the same conditions. For example, T0 soybean plants having a “plant expression cassette”, which includes an HPPD inhibitor tolerant HPPD polypeptide of the present invention, were tested towards the tolerance of Cmpd. 1. Prior greenhouse trials with the transgenic plants, soybean transformants were routinely analyzed for the expression and presence of the transgenes using the ELISA protein detection method (see detailed description under item D and H). Only plants recovering in the selection media and having a detectable HPPD transgene protein expression were used for the herbicide tolerance analysis. A DeVries Tracker Sprayer was calibrated prior to each spraying. The chemical formulation used for Cmpd. 1 was supplemented with ammonium sulfate and methylated rape seed oil. Spray tests were conducted with a concentration, which equals to 300 grams AI per hectare (300 g AI/ha).
In greenhouse trials, independent T0 soybean events containing an exemplary mutant HPPD polypeptide were sprayed with the HPPD inhibitor herbicide Cmpd. 1 (2-chloro-3-(methylsulfanyl)-N-(1-methyl-1H-tetrazol-5-yl)-4-(trifluoromethyl)benzamide) at the rate of 300 grams AI/ha, supplemented with ammonium sulfate and methyl ester rapeseed oil. Five days after the application, the leaf damaged area due to the HPPD inhibitor herbicide is scored in a scale from 0 (no damage) to 100 (complete bleaching). Under those conditions, the wild-type plants were completely bleached and their damage scores were in the 95-100 range.
Table 5 presents the distribution of the HPPD inhibitor herbicide damage score data as percentile for exemplary mutant HPPD inhibitor herbicide tolerant polypeptides (SEQ ID NOs). The percentiles normalize ranks of the damage score from an individual plant in a population. […] The median is the 50th percentile. Half the values had higher damage scores; half had lower damage scores. The value of the 75th and 90th percentile is the damage score where 75% and 90% of the soybean events had lower damage scores, respectively. The difference between the 75th and 25th percentile is called the interquartile range and a marker to quantify scattering in the population. All constructs had only one single cassette insertion in the soybean genome.

Molecule	Turnover [1]	Residual turnover [1]	leaf damage score of wild-type plants ([2]; wild-type soybean plants, 300 grams AI/ha, five days after application, scale 0-100)	turnover / residual turnover in the presence of Cmpd. 1 compared with a reference HPPD polypeptide, in words [1]	leaf area damage score, 25th percentile [2]	leaf area damage score, 75th percentile ([2]; scale 0-100)	leaf area damage score, 90th percentile ([2]; scale 0-100)	leaf area damage score, Median ([2]; scale 0-100)	Residual turnover [%] [1]
CSc1c(C(F)(F)F)ccc(C(=O)Nc2nnnn2C)c1Cl [Cmpd. 1, 2-chloro-3-(methylsulfanyl)-N-(1-methyl-1H-tetrazol-5-yl)-4-(trifluoromethyl)benzamide, reference compound]	0.203	0.021	95-100						
SEQ ID NO: 47: mutant PfHPPD: 268A 270N 335P 336H 337S 340V 344Q 345M (protein, mutant HPPD polypeptide, mutant PfHPPD: 268A 270N 335P 336H 337S 340V 344Q 345M) MADLYENPMGLMGFEFIEFASPTPGTLEPIFEIMGFTKVATHRSKNVHLYRQGEINLILNNEPNSIASYFAAEHGPSVCGMAFRVKDSQKAYNRALELGAQPIHIDTGPMELNLPAIKGIGGAPLYLIDRFGEGSSIYDIDFVYLEGVERNPVGAGLKVIDHLTHNVYRGRMVYWANFYEKLFNFREARYFDIKGEYTGLTSKAMSAPDGMIRIPLNEESSKGAGQIEEFLMQFNGEGIQHVAFLTDDLVKTWDALKKIGMRFMTAPADNYYEMLEGRLPDHGEPVDQLQARGILLDGSSVEGDKRLLLQIFSETLMGPVFFEFIQRKGDDGFGPHSFKVLFEQMERDQVRRGVLTAD				significant increase in the residual turnover	5.0	15.0	51.0	15.0	
43 (protein, mutant HPPD polypeptide) MADLYENPMGLMGFEFIEFASPTPGTLEPIFEIMGFTKVATHRSKNVHLYRQGEINLILNNEPNSIASYFAAEHGPSVCGMAFRVKDSQKAYNRALELGAQPIHIDTGPMELNLPAIKGIGGAPLYLIDRFGEGSSIYDIDFVYLEGVERNPVGAGLKVIDHLTHNVYRGRMVYWANFYEKLFNFREARYFDIKGEYTGLTSKAMSAPDGMIRIPLNEESSKGAGQIEEFLMQFNGEGIQHVAFLTDDLVKTWDALKKIGMRFMTAPADEYYEMLEGRLPDHGEPVDQLQARGILLDGSSVEGDKRLLLQIFSETLMGPVFFEFIQRKGDDGFGPHSFKVLFEQVERDQVRRGVLTAD	0.190	0.110							58%
44 (protein, mutant HPPD polypeptide) MADLYENPMGLMGFEFIEFASPTPGTLEPIFEIMGFTKVATHRSKNVHLYRQGEINLILNNEPNSIASYFAAEHGPSVCGMAFRVKDSQKAYNRALELGAQPIHIDTGPMELNLPAIKGIGGAPLYLIDRFGEGSSIYDIDFVYLEGVERNPVGAGLKVIDHLTHNVYRGRMVYWANFYEKLFNFREARYFDIKGEYTGLTSKAMSAPDGMIRIPLNEESSKGAGQIEEFLMQFNGEGIQHVAFLTDDLVKTWDALKKIGMRFMTAPGDEYYEMLEGRLPDHGEPVDQLQARGILLDGSSVEGDKRLLLQIFSETLMGPVFFEFIQRKGDDGFGPHSFKVLFEQVERDQVRRGVLTAD	0.036								
41 (protein, mutant HPPD polypeptide) MADLYENPMGLMGFEFIEFASPTPGTLEPIFEIMGFTKVATHRSKNVHLYRQGEINLILNNEPNSIASYFAAEHGPSVCGMAFRVKDSQKAYNRALELGAQPIHIDTGPMELNLPAIKGIGGAPLYLIDRFGEGSSIYDIDFVYLEGVERNPVGAGLKVIDHLTHNVYRGRMVYWANFYEKLFNFREARYFDIKGEYTGLTSKAMSAPDGMIRIPLNEESSKGAGQIEEFLMQFNGEGIQHVAFLTDDLVKTWDALKKIGMRFMTAPRDEYYEMLEGRLPDHGEPVDQLQARGILLDGSSVEGDKRLLLQIFSETLMGPVFFEFIQRKGDDGFGPHSFKVLFESVERDQVRRGVLTAD	0.280	0.105							38%
SEQ ID NO: 66: mutant PfHPPD: 213K 268A 270S 335P 336H 337S 340V 344Q 345M (protein, mutant HPPD polypeptide, mutant PfHPPD: 213K 268A 270S 335P 336H 337S 340V 344Q 345M) MADLYENPMGLMGFEFIEFASPTPGTLEPIFEIMGFTKVATHRSKNVHLYRQGEINLILNNEPNSIASYFAAEHGPSVCGMAFRVKDSQKAYNRALELGAQPIHIDTGPMELNLPAIKGIGGAPLYLIDRFGEGSSIYDIDFVYLEGVERNPVGAGLKVIDHLTHNVYRGRMVYWANFYEKLFNFREARYFDIKGEYTGLTSKAMSAPDGMIKIPLNEESSKGAGQIEEFLMQFNGEGIQHVAFLTDDLVKTWDALKKIGMRFMTAPADSYYEMLEGRLPDHGEPVDQLQARGILLDGSSVEGDKRLLLQIFSETLMGPVFFEFIQRKGDDGFGPHSFKVLFEQMERDQVRRGVLTAD				increase significantly the turnover and the residual turnover	5.0	25.0	41.0	10.0	
45 (protein, mutant HPPD polypeptide) MADLYENPMGLMGFEFIEFASPTPGTLEPIFEIMGFTKVATHRSKNVHLYRQGEINLILNNEPNSIASYFAAEHGPSVCGMAFRVKDSQKAYNRALELGAQPIHIDTGPMELNLPAIKGIGGAPLYLIDRFGEGSSIYDIDFVYLEGVERNPVGAGLKVIDHLTHNVYRGRMVYWANFYEKLFNFREARYFDIKGEYTGLTSKAMSAPDGMIRIPLNEESSKGAGQIEEFLMQFNGEGIQHVAFLTDDLVKTWDALKKIGMRFMTAPADNYYEMLEGRLPDHGEPVDQLQARGILLDGSSVEGDKRLLLQIFSETLMGPVFFEFIQRKGDDGFGPHSFKVLFEQVERDQVRRGVLTAD	0.214	0.121							57%
SEQ ID NO: 2: prior art mutant HPPD polypeptide (WO2014/043435): 335P 336W 339A 340Q (protein, mutant HPPD polypeptide, prior art mutant HPPD polypeptide (WO2014/043435): 335P 336W 339A 340Q) MADLYENPMGLMGFEFIEFASPTPGTLEPIFEIMGFTKVATHRSKNVHLYRQGEINLILNNEPNSIASYFAAEHGPSVCGMAFRVKDSQKAYNRALELGAQPIHIDTGPMELNLPAIKGIGGAPLYLIDRFGEGSSIYDIDFVYLEGVERNPVGAGLKVIDHLTHNVYRGRMVYWANFYEKLFNFREARYFDIKGEYTGLTSKAMSAPDGMIRIPLNEESSKGAGQIEEFLMQFNGEGIQHVAFLTDDLVKTWDALKKIGMRFMTAPPDTYYEMLEGRLPDHGEPVDQLQARGILLDGSSVEGDKRLLLQIFSETLMGPVFFEFIQRKGDDGFGPWNFAQLFESIERDQVRRGVLTAD					15.0	45.0	87.0	20.0	
42 (protein, mutant HPPD polypeptide) MADLYENPMGLMGFEFIEFASPTPGTLEPIFEIMGFTKVATHRSKNVHLYRQGEINLILNNEPNSIASYFAAEHGPSVCGMAFRVKDSQKAYNRALELGAQPIHIDTGPMELNLPAIKGIGGAPLYLIDRFGEGSSIYDIDFVYLEGVERNPVGAGLKVIDHLTHNVYRGRMVYWANFYEKLFNFREARYFDIKGEYTGLTSKAMSAPDGMIRIPLNEESSKGAGQIEEFLMQFNGEGIQHVAFLTDDLVKTWDALKKIGMRFMTAPSDEYYEMLEGRLPDHGEPVDQLQARGILLDGSSVEGDKRLLLQIFSETLMGPVFFEFIQRKGDDGFGPHSFKVLFESVERDQVRRGVLTAD	0.278	0.111							40%
